Results from PMC9279372.

target: DEIP1-cYFP fusion protein (Arabidopsis thaliana); assay: split reporter (BiFC, NanoBiT); BiFC with vector pBIFCt-2in1-CC in N. benthamiana, Agrobacterium co-infiltration with p19; protoplasts isolated three days after infiltration; YFP and RFP fluorescence by confocal microscopy; 80 protoplasts in two independent experiments for each interaction
Sequence (main, as listed by the source): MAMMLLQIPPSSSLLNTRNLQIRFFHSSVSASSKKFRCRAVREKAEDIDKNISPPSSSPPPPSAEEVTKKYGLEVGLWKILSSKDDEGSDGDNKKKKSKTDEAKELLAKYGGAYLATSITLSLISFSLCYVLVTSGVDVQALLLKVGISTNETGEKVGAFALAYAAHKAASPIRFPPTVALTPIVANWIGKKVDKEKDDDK

In order of falling percent of transfected protoplasts with YFP fluorescence:
1. DEIP1-cYFP fusion protein (natural protein)  54%
2. PetA with the pea RBCS chloroplast transit peptide and C-terminal nYFP (from UniProt P56771 36-320)  30%
3. PetB with the pea RBCS chloroplast transit peptide and C-terminal nYFP (from UniProt P56773 1-215)  28%
4. PetD with the pea RBCS chloroplast transit peptide and C-terminal nYFP (from UniProt P56774 1-160)  17%
